In patent US20260062456A1 (ALPINE IMMUNE SCIENCES, published 2026):

T1: human TIGIT stably expressed on Jurkat/IL-2 reporter cells (Jurkat/TIGIT cells) (human, UniProt Q495A1 22-244)
T1 sequence: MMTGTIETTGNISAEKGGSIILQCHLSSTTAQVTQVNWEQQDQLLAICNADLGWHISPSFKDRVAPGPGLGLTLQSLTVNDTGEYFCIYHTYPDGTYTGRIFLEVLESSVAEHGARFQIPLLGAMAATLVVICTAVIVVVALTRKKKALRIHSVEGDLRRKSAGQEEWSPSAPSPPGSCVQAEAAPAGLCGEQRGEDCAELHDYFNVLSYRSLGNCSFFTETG

T2: CD96 (UniProt P40200 22-585, limits assumed)
T2 sequence (looked up): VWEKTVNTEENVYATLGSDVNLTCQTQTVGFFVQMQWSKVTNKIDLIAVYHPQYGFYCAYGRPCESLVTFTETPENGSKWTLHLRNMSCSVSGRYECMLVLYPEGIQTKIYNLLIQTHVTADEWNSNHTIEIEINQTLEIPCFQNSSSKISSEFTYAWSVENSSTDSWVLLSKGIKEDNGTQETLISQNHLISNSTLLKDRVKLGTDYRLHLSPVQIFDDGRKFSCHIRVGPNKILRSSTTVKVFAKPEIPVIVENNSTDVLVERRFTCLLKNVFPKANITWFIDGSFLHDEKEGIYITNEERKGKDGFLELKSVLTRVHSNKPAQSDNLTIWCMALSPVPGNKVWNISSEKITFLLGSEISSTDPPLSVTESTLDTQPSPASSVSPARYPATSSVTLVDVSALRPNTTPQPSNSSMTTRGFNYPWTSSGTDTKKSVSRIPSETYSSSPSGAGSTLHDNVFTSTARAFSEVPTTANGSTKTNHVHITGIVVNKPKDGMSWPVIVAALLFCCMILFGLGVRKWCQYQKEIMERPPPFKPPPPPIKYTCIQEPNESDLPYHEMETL


What was measured:
[1] = molecular target: T1, human TIGIT stably expressed on …; assay: flow cytometry, Jurkat/TIGIT cells, 20 nM
[2] = molecular target: human PD-1 stably expressed on Jurkat/IL-2 reporter cells (Jurkat/PD-1 cells) (human, UniProt Q15116 21-288); assay: flow cytometry, Jurkat/PD-1 cells, 20 nM
human PD-1 stably expressed on Jurkat/IL-2 reporter cells (Jurkat/PD-1 cells), sequence (Q15116 21-288): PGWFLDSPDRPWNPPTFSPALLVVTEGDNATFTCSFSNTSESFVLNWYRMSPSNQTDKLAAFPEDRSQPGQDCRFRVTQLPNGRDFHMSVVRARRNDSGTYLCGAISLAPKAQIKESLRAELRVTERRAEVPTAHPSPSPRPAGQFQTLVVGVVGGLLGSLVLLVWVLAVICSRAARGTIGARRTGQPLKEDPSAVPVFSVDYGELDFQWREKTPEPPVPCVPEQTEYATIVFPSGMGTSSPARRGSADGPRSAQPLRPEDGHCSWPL

CD28 = CD28 (UniProt P10747 19-220); assay: flow cytometry, HEK293 cells transfected with CD28
CD96 = molecular target: T2, CD96; assay: flow cytometry, cells expressing CD96

Row | MFI at 20 nM [1] [MFI] | MFI at 20 nM [2] [MFI] | MFI at 66.6 nM (CD28) [MFI] | MFI at 25 nM (CD96) [MFI] | Binder
1 | 81800 | 47300 |  |  | PD-L1/CD155 Stack 3 (Fc fusion) WPPPGTGDVVVQAPTQVSGFLGDSVTLPCYLQVPNMEVTHVSQLTWARHGESGSMAVFHQTQGPWYAESKRLEFVAARLGAELRNASLRMFGLRVEDEGNYTCQFVTFPQRSRSVDIWLRVLGGGGSGGGGSGGGGSFTVTVPKDLYVVEYGSNMTIECKFPVEKQLDLAALIVYWEMEGKDIIQFVHGEEDQKAQHSSYRQRARLLKDQLSLGNAALQITDVKLQDAGVYRCMISYGGGADYKRITVKVNAGGGGSGGGGSEPKSSDKTHTCPPCPAPEAEGAPSVFLFPPKPKDTLMISRTPEVTCVVVDVSHEDPEVKFNWYVDGVEVHNAKTKPREEQYNSTYRVVSVLTVLHQDWLNGKEYKCKVSNKALPAPIEKTISKAKGQPREPQVYTLPPSRDELTKNQVSLTCLVKGFYPSDIAVEWESNGQPENNYKTTPPVLDSDGSFFLYSKLTVDKSRWQQGNVFSCSVMHEALHNHYTQKSLSLSPGK
2 |  |  | 3070 |  | WT CD80 ECD Fc (Fc fusion, not shown: a dimerising Fc or GST) VIHVTKEVKEVATLSCGHNVSVEELAQTRIYWQKEKKMVLTMMSGDMNIWPEYKNRTIFDITNNLSIVILALRPSDEGTYECVVLKYEKDAFKREHLAEVTLSVKADFPTPSISDFEIPTSNIRRIICSTSGGFPEPHLSWLENGEELNAINTTVSQDPETELYAVSSKLDFNMTTNHSFMCLIKYGHLRVNQTFNWNTTKQEHFPDN
3 | 60500 | 78000 |  |  | PD-L1/CD155 Stack 4 (Fc fusion) FTVTVPKDLYVVEYGSNMTIECKFPVEKQLDLAALIVYWEMEGKDIIQFVHGEEDQKAQHSSYRQRARLLKDQLSLGNAALQITDVKLQDAGVYRCMISYGGGADYKRITVKVNAGGGGSGGGGSGGGGSWPPPGTGDVVVQAPTQVSGFLGDSVTLPCYLQVPNMEVTHVSQLTWARHGESGSMAVFHQTQGPWYAESKRLEFVAARLGAELRNASLRMFGLRVEDEGNYTCQFVTFPQRSRSVDIWLRVLGGGGSGGGGSEPKSSDKTHTCPPCPAPEAEGAPSVFLFPPKPKDTLMISRTPEVTCVVVDVSHEDPEVKFNWYVDGVEVHNAKTKPREEQYNSTYRVVSVLTVLHQDWLNGKEYKCKVSNKALPAPIEKTISKAKGQPREPQVYTLPPSRDELTKNQVSLTCLVKGFYPSDIAVEWESNGQPENNYKTTPPVLDSDGSFFLYSKLTVDKSRWQQGNVFSCSVMHEALHNHYTQKSLSLSPGK
4 |  |  |  | 1170 | CD112-IgV (Fc fusion, not shown: a dimerising Fc or GST) QDVRVQVLPEVRGQLGGTVELPCHLLPPVPGLYISLVTWQRPDAPANHQNVAAFHPKMGPSFPSPKPGSERLSFVSAKQSTGQDTEAELQDATLALHGLTVEDEGNYTCEFATFPKGSVRGMTWLRV
